Source: article PMC9864249

B1: GST-ZZUDL1340P (ZZUD domain of erythrocyte ankyrin with the spherocytosis-related L1340P substitution) (domain or fragment)
chain: TGFLVSFMVDARGGSMRGSRHNGLRVVIPPRTCAAPTRITCRLVKPQKLSTPPPLAEEEGLASRIIALGPTGAQFLSPVIVEIPHFASHGRGDRELVVLRSENGSVWKEHRSRYGESYLDQILNGMDEELGSLEELEKKRVCRIITTDFPLYFVIMSRLCQDYDTIGPEGGSLKSKLVPLVQATFPENAVTKRVKLALQAQPVPDELVTKLLGNQATFSPIVTVEPRRRKFHRPIGLRIPLPPSWTDNPRDSGEGDTTSLRLLCSVIGGTDQAQWEDITGTTKLVYANECANFTTNVSARFWLSDCPRTAEAVNFATLLYKELTAVPYMAKFVIFAKMNDPREGRLRCYCMTDDKVDKTLEQHENFVEVARSRDIEVLEGMSLFAELSGNLVPVKKAAQQRSFHFQSFRENRLAMPVKVRDSSREPGGSPSFLRKAMKYEDTQHILCHLNITMPPCAKGSGAEDRRRTPTPLALRYSILSESTPGSLSGTEQAEMKMAVISEHLGLSWAELARELQFSVEDINRIRVENPNSLLEQSVALLNLWVIREGQNANMENLYTALQSIDRGEIVNMLEGSGRQSRN

Columns and labels:
[1] = target: GST-ZZUD (ZU5-ZU5-UPA-DD spectrin-binding domain of erythrocyte ankyrin, wild type) (human) (UniProt P16157); assay: pull-down; sedimentation assay: GST-ZZUD or GST-ZZUDL1340P adsorbed on Glutathione Sepharose 4B; His(6)GFP–AnkBD 0–2 µM; 50 mM Tris–HCl, 150 mM NaCl, 2 mM DTT, pH 7.5; 30 min, room temperature; eluted with 75 mM GSH, bound GFP read by fluorescence; bare resin subtracted; one site-specific binding fit
[2] = target: His(6)GFP–AnkBD (ankyrin-binding domain of erythrocyte β-spectrin, repeats 14–15) (human) (UniProt P11277); assay: BLI; Octet K2; His(6)GFP–AnkBD loaded on Ni2+-NTA biosensor tips; GST-ZZUD or GST-ZZUDL1340P 0–2.5 µM in solution; 30 °C; 50 mM Tris–HCl, 150 mM NaCl, 2 mM DTT, pH 7.5; association 300 s, dissociation 300 s; curves compared by amplitude
Sequence of UniProt P11277 (P11277 whole entry, the tested form may be a part): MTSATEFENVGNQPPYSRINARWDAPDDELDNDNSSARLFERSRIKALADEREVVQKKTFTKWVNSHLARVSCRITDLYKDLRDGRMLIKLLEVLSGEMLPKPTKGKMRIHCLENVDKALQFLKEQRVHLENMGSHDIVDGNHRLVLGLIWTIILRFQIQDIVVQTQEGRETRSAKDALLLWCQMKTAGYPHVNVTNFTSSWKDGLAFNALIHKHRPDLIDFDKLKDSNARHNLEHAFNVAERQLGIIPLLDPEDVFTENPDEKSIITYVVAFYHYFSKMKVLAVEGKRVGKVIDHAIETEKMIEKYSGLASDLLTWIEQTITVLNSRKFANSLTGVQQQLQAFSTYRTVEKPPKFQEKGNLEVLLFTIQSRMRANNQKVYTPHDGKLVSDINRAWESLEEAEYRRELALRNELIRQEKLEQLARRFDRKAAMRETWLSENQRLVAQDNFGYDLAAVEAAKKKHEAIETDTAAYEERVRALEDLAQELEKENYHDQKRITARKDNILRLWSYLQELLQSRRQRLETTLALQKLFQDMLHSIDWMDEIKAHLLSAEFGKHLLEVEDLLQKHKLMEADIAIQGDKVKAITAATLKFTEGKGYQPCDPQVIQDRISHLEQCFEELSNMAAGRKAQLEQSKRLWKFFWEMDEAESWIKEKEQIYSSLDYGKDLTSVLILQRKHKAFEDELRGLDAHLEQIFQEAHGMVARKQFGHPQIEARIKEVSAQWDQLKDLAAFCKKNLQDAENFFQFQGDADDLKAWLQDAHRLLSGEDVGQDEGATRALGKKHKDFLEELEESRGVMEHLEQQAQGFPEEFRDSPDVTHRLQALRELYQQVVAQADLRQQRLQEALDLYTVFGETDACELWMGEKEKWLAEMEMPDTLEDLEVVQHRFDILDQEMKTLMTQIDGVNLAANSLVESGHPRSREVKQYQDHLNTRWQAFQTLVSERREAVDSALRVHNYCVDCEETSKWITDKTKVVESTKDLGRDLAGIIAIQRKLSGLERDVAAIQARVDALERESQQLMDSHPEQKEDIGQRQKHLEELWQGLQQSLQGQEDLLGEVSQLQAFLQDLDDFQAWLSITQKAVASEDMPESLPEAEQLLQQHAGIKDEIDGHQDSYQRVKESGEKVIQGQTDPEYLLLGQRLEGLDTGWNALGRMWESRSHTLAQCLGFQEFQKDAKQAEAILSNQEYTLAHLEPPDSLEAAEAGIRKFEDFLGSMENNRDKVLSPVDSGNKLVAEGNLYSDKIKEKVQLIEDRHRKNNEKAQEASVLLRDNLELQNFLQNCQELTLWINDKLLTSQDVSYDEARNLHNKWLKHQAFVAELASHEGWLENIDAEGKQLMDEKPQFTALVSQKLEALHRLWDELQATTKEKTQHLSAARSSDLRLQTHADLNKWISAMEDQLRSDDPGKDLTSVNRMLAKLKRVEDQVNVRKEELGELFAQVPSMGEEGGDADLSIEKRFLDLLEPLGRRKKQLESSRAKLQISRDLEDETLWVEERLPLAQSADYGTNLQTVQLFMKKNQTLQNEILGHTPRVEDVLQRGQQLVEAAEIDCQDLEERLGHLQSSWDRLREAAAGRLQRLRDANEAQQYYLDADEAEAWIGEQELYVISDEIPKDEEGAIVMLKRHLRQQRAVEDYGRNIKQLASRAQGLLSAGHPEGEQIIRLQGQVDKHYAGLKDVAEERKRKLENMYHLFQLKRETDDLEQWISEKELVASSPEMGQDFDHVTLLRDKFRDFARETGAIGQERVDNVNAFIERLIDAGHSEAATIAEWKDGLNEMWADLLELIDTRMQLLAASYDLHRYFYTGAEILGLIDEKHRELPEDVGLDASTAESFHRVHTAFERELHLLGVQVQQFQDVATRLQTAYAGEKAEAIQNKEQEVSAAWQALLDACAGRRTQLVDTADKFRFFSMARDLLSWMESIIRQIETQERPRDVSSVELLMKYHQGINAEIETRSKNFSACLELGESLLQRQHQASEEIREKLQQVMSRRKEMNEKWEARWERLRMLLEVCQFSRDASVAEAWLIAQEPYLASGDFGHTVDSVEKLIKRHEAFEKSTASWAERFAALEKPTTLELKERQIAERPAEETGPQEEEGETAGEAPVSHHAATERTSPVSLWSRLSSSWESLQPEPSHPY

Row | Molecule | Kd [1] | fold decrease in the binding response compared to the WT [2]
1 | His(6)GFP–AnkBD (ankyrin-binding domain of erythrocyte β-spectrin, repeats 14–15) (from UniProt P11277 1-2137) (domain or fragment) | 1040 nM | –
2 | B1 | – | 3 fold
